# Measurements as given in the nanobody polyreactivity screen of Harvey et al. (2022).
# Assay: yeast display, Sf9 membrane polyspecificity reagent, FACS + sequencing; frameworks hold sequencing errors
# In short: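 Nanobodies came from a synthetic yeast display library in Saccharomyces cerevisiae BJ5465, induced with galactose for 36–48 hours and stained for 1 hour at 4 °C with 10% biotinylated, detergent-solubilized Sf9 membrane reagent. Cells were enriched on streptavidin microbeads and then FACS-sorted, with low and high (top ~1%) gates set on anti-HA fluorescence for expression and streptavidin fluorescence for reagent binding. Each polyreactivity label reflects the gate a clone came from. Genes were amplified by colony PCR, sequenced by MiSeq 2 × 250 and filtered by CDR length.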
row,Sequence,polyreactivity (PSR sort gate)
1,QVQLVESGGGLVQAGGSLRLSCAASGSLFYSYAMGWDRPAPGKERELVAAIRRDGSTNYADSVKGRFTISRDNAKNTVYLQMNSLKPEDTAVYYCNADGWNTYIGPRRYRYDYWGQGTQVTVSS,low polyreactivity
2,QVQLVESGGGLVQAGGSLRLSCAASGSLFYVYAMGWYRQAPGKERELVAAITNYADSVKGRFTISRDNAKNTVYLQMNSLKPEDTAVYYCAADWWRVEMDYWGQGSQVTVSS,low polyreactivity
3,QVQLVESGGGLVQAGGSLRLSCAASGSMFAAYAMGWYRQAPGKARELVAAISSGDGTYYADSVKGRFTISRDNAKNTVYLQRNSLKPEDTAVYYCNAYVSQRYRGSRYYYWGQGTQVTLSS,high polyreactivity
4,QVQLVESGGGLVQAGGSLRLSCAASGSMFSHYTMGWYRQAPGQERELVAAITNGGITNYADAVKGRFTISRDNAKNTVYLQMNSLKPEDTAVYYCAADWWYGYSNYDYWGQGTQVTVSS,low polyreactivity
5,QVQLVESGGGLVQAGGSLRLSCAASGSMFVTNALGWYRQAPGTERELVAAMSVSGGSTYYADSVKGRFTISRDNAKNTVDLQMNSLKPEDTAVYYCNTVRSPPGHDYWGQGTQVTVSS,low polyreactivity
6,QVQLVESGGGLVQAGGSLRLSCAASGSNFAKNAMGWYRQAPGKERELVAAITSSGGSTYYADSVKGRFTISRDNAKNTVYLQMNSLNPEDTAVYYCARPNDWYHYHGWYWSIYRYDYWGQGTQVTVSS,high polyreactivity
7,QVQLVESGGGLVQAGGSLRLSCAASGSNFDTYAMGWYRQAPGKESELVAAITRRAGSTYYADSVKGRFTISRDNAKYTVYLQMNSLKPEDTAVYYCAADFRYPDNYGGYDYWGQGTQVTVSS,low polyreactivity
8,QVQLVESGGGLVQAGGSLRLSCAASGSNFGEYAMGWYIQAPGKERELVAAISYRGGSTYYADSVKGRFTISRDNAKNTVYLQMNSLKPEDTAVYYCNRDRRRRGAYGRPGGDHWGQGTQVTVSS,high polyreactivity
9,QVQLVESGGGLVQAGGSLRLSCAASGSNFGIYAMGWYRQAPGKERELVAAISSRGSTYYADSVKGRFTISRDNAKNTVYLQMNSLKPEDTAVYYCAAGYAWYNYWGQGTQVTVSS,high polyreactivity
10,QVQLVESGGGLVQAGGSLRLSCAASGSNFGRYVMGWYRQAPGKERELVAAITRTGVRTYYADSVKGRFTISRDNANNTVYLQINSLKPEDTAVYYCNRYGARSNDYWGQGTQVTESS,low polyreactivity
11,QVQLVESGGGLVQAGGSLRLSCAASGSNFGSNAMGWYRQAPGKERELVATISGRGGSTYYADSVKGRFTISRDNAKNTVYLQMNSLKPEDTAVYYCAKDRRTWRYGQVFSPYYYWGQGTQVTVSS,low polyreactivity
12,QVQLVESGGGLVQAGGSLRLSCAASGSNFGVNAMGGYRQAPGKERELVAAITSGGGTYYTDSVKGRFTISRDNAKKTVYLQKNSLKPEATAVYYCMARVRGKQLVGRYDYWGQGTQVTVSS,high polyreactivity
13,QVQLVESGGGLVQAGGSLRLSCAASGSNFHPNAMGSCRQAPGKERELVAAITKSGGSTYYADSVKGRFTISRDNAKNTVYLQMNSRKPEDTAVYYCNALRYRRVGTLGYDYWGQATQVTVSS,high polyreactivity
14,QVQLVESGGGLVQAGGSLRLSCAASGSNFKSNAMGLYRPAPGKERELVAAINRSGAGTYYADSVKGRFTISRDNAKNTVYLQMNSLKPEDTAVYYCAAQSYSRRYDYWGQGTQVTVSS,high polyreactivity
15,QVQLVESGGGLVQAGGSLRLSCAASGSNFLTYAMGRYRQAPGKEREFVAAISTSGVSTYYADSVKGRFTISRDNAKNTVYLQMNSLKPEDTAVYFCAAVYDLGYYGPIWAIVLDDYWGQGTQVTVSS,low polyreactivity
16,QVQLVESGGGLVQAGGSLRLSCAASGSNFNYYTMGWYRQAPGKERELVAAITDSGGSTYYADSVMGRFTISRDNAKNTVYLQMNSLIPEDTAVYYCAAAVPELYEVRYHADYWGQGTQVTVST,low polyreactivity
17,QVQLVESGGGLVQAGGSLRLSCAASGSNFPSYAMGWYTKAPGEEMEFVARISRGDDSTYYADSVKGRFTISRDNAKNTVYLQMNSLKPEDTAVYYCAADYPDVVYLEYDYWGQGTQVTVSS,low polyreactivity
18,QVQLVESGGGLVQAGGSLRLSCAASGSNFPYNAMGWYRQAPGKERELVAAITGRGGSTYYADSVKGRFTISRDNAKNTVYLHMNSLKPEDTAVYYCAAVTRNQGYYRYYYWGQGTQVTVSS,high polyreactivity
19,QVQLVESGGGLVQAGGSLRLSCAASGSNFRGNAMAWYRQAPGKERELVAAITYNDGGTYYADSVKGRFTISRDNAMNTVYLQMNLLKPEDTAVYYCAAVGTGNKSILYDYWGQGTQVTVSS,low polyreactivity
20,QVQLVESGGGLVQAGGSLRLSCAASGSNFRPYAMGWYRQAPGKERELVAAISSSGGSTYYADSVKGRFTISGDNAKHTVYLQMNSLKPEDTAVYYCAKDGVSFYWLNKYYYWGQGTQVTVSS,low polyreactivity
21,QVQLVESGGGLVQAGGSLRLSCAASGSNFRYYALGWYRQAPGKERELVAGNTGSTGRTYYADSVKGRFTISRDNAKNTVYLQMNRLKPEDTAVYYCATGIYRARTSSFRMGYWGQGTHVTVSS,low polyreactivity
22,QVQLVESGGGLVQAGGSLRLSCAASGSNFRYYAMGWYSPAPGKERELVAAISQSGGSTYSADSVKGRFTISRDNAKTTVYLQMNSLKPEDTAVYYCAARRVDTRGHVRYRYYYWGQGTQVTVSS,high polyreactivity

row,Sequence,polyreactivity (PSR sort gate)
1,QVQLVESGGGLVQAGGSLRLSCAASGSNFSFNGLGWYRQAPGKERGLVAAITTSGGSTYYADSVKGRFTISRDNAKNTVYLQMNSLTPEDTAVYYCAAVGPDNSLYEPMDYWGLGTQVTVSS,low polyreactivity
2,QVQLVESGGGLVQAGGSLRLSCAASGSNFSSNAMGWYRQAPGKERELVAAISRSGVTTYYADSVKGRFTISRDNAKNTVYLQMNSLKPEDTAVYYCAGQPYSRLYGRYRGFQYKYVYWGHGTQVTVSS,low polyreactivity
3,QVQLVESGGGLVQAGGSLRLSCAASGSNFTNYAMGWYRPAPGKERELVARITSSGSRTYYADSVKGRFTISRDNAKNTVYLQMNSLKPEDTAVYYCNAETYYLRYGRGYRRFDYWGQGTQVTVSS,high polyreactivity
4,QVQLVESGGGLVQAGGSLRLSCAASGSNFVNNAMGWYRQAPGKERELVASITWSGGRTYYADSVKGRFTISRDNAKNTVDLQMNSLKPEDTAVYYCNKRQYSRTFRYGYWGQGTEVTVSS,high polyreactivity
5,QVQLVESGGGLVQAGGSLRLSCAASGSNFVRNTMGWYRQAPGKESELVATISSGGRTNYADSVKGRFTISRDNAKNTVYLQLNSLKPEDTAVYYCNRPRWYGGSPYYYWGQGTQVTVSS,high polyreactivity
6,QVQLVESGGGLVQAGGSLRLSCAASGSNFYFYAMGWYRHAPGKERELVAGITSGGITYYADSVKGRFTISRDNAKNTVYLQLNSLKPEDTAVYYCAADFTRRWSKSTPFDSWGQGTQVTVSS,high polyreactivity
7,QVQLVESGGGLVQAGGSLRLSCAASGSNFYLYAMGWYRQAPGKERELVAAITSIGGSTYADSVKGRFTISRDNAKNTVYLQMNSLKPEDTAVYYCNTDEYPLTVQVQYYYWGQGTQVTVSS,low polyreactivity
8,QVQLVESGGGLVQAGGSLRLSCAASGSNIDGYAMGRYRQAPGKEREFLAAISFSSASTYYADSVKGRFTISRDNAKNSVYLQMNSLKPEDTAVYYCNADFFESGGSIEYDSSGQGTQVTVSS,low polyreactivity
9,QVQLVESGGGLVQAGGSLRLSCAASGSNIRSNAMGWYRQAPGKERELVAAISRTGGRTYYADSVKGRFTISRDNEKNTVYLQMKSLKPEYTAVYYCAASSSGSGGYWGQCTQVTVSS,high polyreactivity
10,QVQLVESGGGLVQAGGSLRLSCAASGSNLVWNAMGWYRQAPGKERELVAAIDRDTTTYYADSVKGRFTISRDNAKNTVYLQMNSLKPEDTAVYYCAAESWYYLYDYWGQGTQVTVSS,high polyreactivity
11,QVQLVESGGGLVQAGGSLRLSCAASGSNLYKYAMGWYRPAPGKERELVASITWSDGNTNYADSVKGRFTISRHNAKNTVYLQMNSLKPEDTAVYYCAADWRYILRGDDYWGQGTQVTVSS,low polyreactivity
12,QVQLVESGGGLVQAGGSLRLSCAASGSNSPTMLMGGYRKAPGKERELVAAISGGGRTNYADSVKGRFTISRDNAKNTVYLQMNSLKPEETAVYYCAAGGYYQRTRGDWGQGTQVTVSS,high polyreactivity
13,QVQLVESGGGLVQAGGSLRLSCAASGSNSYFNAMGWYRQAPGKERELVAAITSGGSTYYADSVKGRFTISRDNAKNTVYLQMNSLKPEDTAVYYCNAPLEWGVYAAQNWDDGYWGQGTQVTVSS,low polyreactivity
14,QVQLVESGGGLVQAGGSLRLSCAASGSNVPSYAMGWYRQAPGKERELVAAINSGGGTNYADSVKGRFTISRDNAKNTVYVQMNSLKPEDTAVYYCAKSRYDYTKTEGGYWGQGTQVTVSS,low polyreactivity
15,QVQLVESGGGLVQAGGSLRLSCAASGSNVYIYAMGWYRQAPGKERELVASINSGGSTNYADSVKGRFTISRDNAKNTVYLQMNSLKPEDTAVYYCNADVYDTYSPLGYYYWGQGTQVTVSS,low polyreactivity
16,QVQLVESGGGLVQAGGSLRLSCAASGSPFGFNAMGWYRQAPGKERELVAAISRSGTRTYYADSVKGRFTISRDNEKNTVYLQMNSQKPEDTAVYFCAADSTLSRYDYWGQGTQVTVSS,high polyreactivity
17,QVQLVESGGGLVQAGGSLRLSCAASGSPFLTNAMGWDRQAPGKERELVAAITWSTGSTYYADSVKGRFTISRDNAKNTVYLQMNSLKPEDTAVYYCNARSEVSYWWGGYWGEGTQVTVSS,low polyreactivity
18,QVQLVESGGGLVQAGGSLRLSCAASGSPFNYYAMGSYRQAPGKERELVAGINRGGSTNYADSVKGRFTISRDNAKNTVYLQMNSLKPEDTAVYYCAVRAYRWRSTLGLYYWGQGTQVTVSS,high polyreactivity
19,QVQLVESGGGLVQAGGSLRLSCAASGSPFRTYAIGWYRQAPGKERELVASIDSTGSTNYADSVKGRFTISRDNAKNTVYLQMNCLKAEVTAVYYCAAETYSYPPFYAYDYWGQGTQVTVSS,low polyreactivity
20,QVQLVESGGGLVQAGGSLRLSCAASGSPFVDNDMGWSRQAPGKDRELVAAAITARGGSTYYADSVKGRFTISRDNAKNTVYLQMNSLKPEDTAVYYCAAGRPGELDYWGQGTQVTVSS,low polyreactivity
21,QVQLVESGGGLVQAGGSLRLSCAASGSRFSHYSMGWYRQAPGKERDLVATITGTGVRTSYADSVKGRFTISRDNAKNTVYLQMNSLKAEDTAVYYCAADGDYDPNLYGYWGQGTQVTVSS,low polyreactivity
